Reference: patent US20020127543A1, “Methods and compositions utilizing hepatitis C virus molecules” (priority 1999, published 2002)
Where two headings read alike, the source gives them in different places.

Tests used:
[1] = system: eIF3 (eukaryotic initiation factor 3 complex); test: EMSA
[2] = system: Dabsyl peptide with QQQQQ core (synthetic); details: FRET quenching, R2 N/A
[3] = system: Dabsyl peptide with KKQKR core (synthetic); details: FRET quenching
[4] = system: Dabsyl peptide with KKRQR core (synthetic); details: FRET quenching
[5] = system: Dabsyl peptide with RRRRR core (synthetic); details: FRET quenching, 50 mM Tris pH 7.4, 110 mM KCl
[6] = system: Dabsyl peptide with KKKQR core (synthetic); details: FRET quenching
[7] = system: Dabsyl peptide with KKKKK core (synthetic); details: FRET quenching
[8] = system: Dabsyl peptide with KKQRR core (synthetic); details: FRET quenching
HCV mIRES RNA = test: FRET titration of fluorescein-labelled RNA with Dabsyl-labelled peptides; format: binding; details: HCV loopIII RNA 10 nM, pH7.4, 110 mM KCl
Source text: (§1) Oligoribonucleotides with a fluorescein attached to the 5′ end of the molecule (shown in FIG. 6a) were synthesised using conventional oligoribonucleotide techniques. A 19 mer (FIG. 6b) was used for control purposes
(§2) Fluoresein-labeled RNA was titrated with Dabsyl-labelled peptides. The donor (fluorescein) fluoresence was excited at 490 nm. In the presence of peptide, binding leads to a quenching of fluorescence by the non-fluorescent acceptor dye Dabsyl. The quenching curves allow the determination of binding affinities. Fluorescein-labelled RNA containing the mIRES was titrated with various peptides.
(§3) FIG. 7 illustrates binding curves for RNA containing the mIRES titrated with various peptides. Experimental conditions: Fam-labelled RNA (10 nM) was titrated with Dabsyl-labelled peptide in 50 mM Tris/Cl, pH7.4, 110 mM KCl, 5ug/ml BSA, 0.01% Triton X-100, 1%DMSO. Fluorescence (excitation 490 nm/emission at 535 nm) was determined in 96-well plates using a Fluorescence plate reader. The assay volume was 100 μl.
(§4) Dissociation constants were determined by fitting a binding isotherm (1-site-binding) to the titration data using the equation
(§5) Y=((Fmax−Fmin)−((Fmax−Fmin)*c/(Kd+c)))+Fmin

19mer control RNA = test: FRET titration of fluorescein-labelled control RNA with Dabsyl-labelled peptides; format: binding
Source text: as §1, §2, §3, §4, §5

IIIB-Dabcyl RNA = test: Inhibition of paromomycin-TAMRA binding to IIIB-Dabcyl RNA (FRET); design: species or system HCV
Experimental: Measurements were made in a 2 mL cuvette. Increasing amounts of IIIB-Dabcyl RNA (corresponding to the amounts shown in the figure) were added to a solution of 10 nM paromomycin-TAMRA in the presence of 50 mM Tris.HCl pH7.5, 80 mM KCl. For each titration point emission spectra were acquired using a fixed wavelength of 552 nm with the excitation slits set to 5 nm and the emission slits set to 10 nm. Emission spectra were acquired over the range 570-600 nm. Two binding curves are presented, the first in the absence of a test molecule (FIG. 8a) and the second in the presence of 10 μM neomycin (FIG. 8b).

[9] = relative to DIII, no complex formed

HCV IRES Domain III (DIII) was tested, and the binding signal ([1]; reference, 60 mM KCl, 3 mM MgCl2, 200 nM tRNA, on ice, relative affinity by unlabelled RNA competition) was 100%.
HCV mIRES RNA (loop III, FIG. 6a) showed a Kd ([2]; 50 mM Tris pH 7.4, 110 mM KCl) greater than 500 nM, a Kd ([3]; 50 mM Tris pH 7.4, 110 mM KCl) greater than 500 nM and a Kd ([4]; 50 mM Tris pH 7.4, 110 mM KCl) of 104 nM. For the same substance, the Kd ([5]; ±10, 10 nM RNA) was 30 nM, the Kd ([6]; 50 mM Tris pH 7.4, 110 mM KCl) was 90 nM and the Kd ([7]; 50 mM Tris pH 7.4, 110 mM KCl) was 49 nM. The Kd ([8]; 50 mM Tris pH 7.4, 110 mM KCl) was 41 nM.
With HCV IRES Domain II (DII) the binding signal [1, 9] was 0.5%.
RRRRR showed a Kd (HCV mIRES RNA) of 30 ± 10 nM and a Kd (19mer control RNA) of 194 nM.
KKKKK showed a Kd (HCV mIRES RNA) of 49 nM and a Kd (19mer control RNA) greater than 500 nM.
With KKRQR the Kd (HCV mIRES RNA) was 104 nM and the Kd (19mer control RNA) was greater than 500 nM.
Work on KKQRR yielded a Kd (HCV mIRES RNA) of 41 nM and a Kd (19mer control RNA) greater than 500 nM.
QQQQQ showed a Kd (HCV mIRES RNA) greater than 500 nM and a Kd (19mer control RNA) greater than 500 nM.
With Neomycin the Ki (IIIB-Dabcyl RNA; 10 nM paromomycin-TAMRA, 10 μM neomycin) was 520 nM and the “Inhibition of paromomycin-TAMRA binding to IIIB-Dabcyl RNA (in words)” value (IIIB-Dabcyl RNA; 10 uM) was “inhibits paromomycin-TAMRA binding to IIIB-Dabcyl RNA”.
Substance tRNA has a binding signal [1, 9] of 0.1%.
Work on KKKQR yielded a Kd (HCV mIRES RNA) of 90 nM and a Kd (19mer control RNA) greater than 500 nM.
Work on 19-mer control RNA (FIG. 6b) yielded a Kd [2] greater than 500 nM, a Kd ([3]; R2 N/A) greater than 500 nM and a Kd ([4]; R2 N/A) greater than 500 nM. For the same substance, the Kd [5] was 194 nM, the Kd ([6]; R2 N/A) was greater than 500 nM and the Kd ([7]; R2 N/A) was greater than 500 nM. The Kd ([8]; R2 N/A) was greater than 500 nM.
KKQKR gave a Kd (HCV mIRES RNA) greater than 500 nM and a Kd (19mer control RNA) greater than 500 nM.
